Measurements from paper PMC6042069.
Where two headings read alike, the source gives them in different places.

How the values were obtained:
Test in all cases: EMSA
[1] = molecular target: T1, PPARγ2;RXRα (mouse;human, UniProt P37238;P19793 1-505;1-462, |)
[2] = molecular target: T1, PPARγ2;RXRα; remark: listed apart in the source
[3] = molecular target: T1, PPARγ2;RXRα; remark: listed apart in the source

B1: LepRE1 DR1 (GOF) (dsDNA)
DNA 1: AAGATTTGAACTTTGAACTGAATTGGCTGCAGC
DNA 2: GCTGCAGCCAATTCAGTTCAAAGTTCAAATCTT
binding result [1]: binds

B2: LepRE1 LOF (dsDNA)
DNA 1: AAGATTTGAAATTTCCGCAGAATTGGCTGCAGC
DNA 2: GCTGCAGCCAATTCTGCGGAAATTTCAAATCTT
binding result [2]: no binding

B3: LepRE1 EXT (dsDNA)
DNA 1: AAGATTTGAACTTTCCGCAGGATTGGCTGCAGC
DNA 2: GCTGCAGCCAATCCTGCGGAAAGTTCAAATCTT
binding result [3]: binds
